Values quoted from earlier work in publication PMC9092467.

Key:
His83 = His83 (UniProt position 83, FNEPAHTLYGQ); assay: NMR
His32 = His32 (UniProt position 32, FGDVNHTNGNV); assay: NMR
[1] = apoprotein (no haem or haem analogue bound)
[2] = holoprotein with gallium protoporphyrin IX, Ga(PPIX), bound

For “Haem acquisition system protein A (hemophore HasA) (Serratia marcescens)”, which pKa (His83; [1]) is on record?
Its pKa is 5.6.

What about the pKa (His83; [2]) of the same substance?
The pKa was 9.7.

What about the pKa (His32; [1]) of the same substance?
Its pKa is 7.3.

And the pKa (His32; [2])?
The pKa was less than 4.8.
